In patent publication US20170137514A1 (Bristol-Myers Squibb, published 2017):
Substitutions are numbered along the chain they refer to. Names may count otherwise.

T1: soluble human LAG-3/Fc antigen (human, UniProt P18627 23-450)
T1 construct: also called huLAG-3-Fc; not shown: Fc part of the fusion
T1 sequence: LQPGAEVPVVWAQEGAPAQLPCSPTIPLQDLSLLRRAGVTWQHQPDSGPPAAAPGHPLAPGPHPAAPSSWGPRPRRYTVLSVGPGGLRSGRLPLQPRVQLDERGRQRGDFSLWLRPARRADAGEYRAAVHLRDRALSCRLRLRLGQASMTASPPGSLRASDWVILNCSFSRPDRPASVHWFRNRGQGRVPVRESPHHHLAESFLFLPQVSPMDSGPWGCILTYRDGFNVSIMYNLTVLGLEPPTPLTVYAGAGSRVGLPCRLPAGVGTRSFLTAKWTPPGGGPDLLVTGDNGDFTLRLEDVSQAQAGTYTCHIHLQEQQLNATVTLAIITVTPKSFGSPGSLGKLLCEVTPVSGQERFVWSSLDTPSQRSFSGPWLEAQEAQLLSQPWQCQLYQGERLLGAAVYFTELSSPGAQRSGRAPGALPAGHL

T2: human LAG-3 on activated Hu CD4+ T cells
T2 construct: differs from m5, which is LAG-3 transduced into 3A9 cells; also called native human LAG-3
T2 chain: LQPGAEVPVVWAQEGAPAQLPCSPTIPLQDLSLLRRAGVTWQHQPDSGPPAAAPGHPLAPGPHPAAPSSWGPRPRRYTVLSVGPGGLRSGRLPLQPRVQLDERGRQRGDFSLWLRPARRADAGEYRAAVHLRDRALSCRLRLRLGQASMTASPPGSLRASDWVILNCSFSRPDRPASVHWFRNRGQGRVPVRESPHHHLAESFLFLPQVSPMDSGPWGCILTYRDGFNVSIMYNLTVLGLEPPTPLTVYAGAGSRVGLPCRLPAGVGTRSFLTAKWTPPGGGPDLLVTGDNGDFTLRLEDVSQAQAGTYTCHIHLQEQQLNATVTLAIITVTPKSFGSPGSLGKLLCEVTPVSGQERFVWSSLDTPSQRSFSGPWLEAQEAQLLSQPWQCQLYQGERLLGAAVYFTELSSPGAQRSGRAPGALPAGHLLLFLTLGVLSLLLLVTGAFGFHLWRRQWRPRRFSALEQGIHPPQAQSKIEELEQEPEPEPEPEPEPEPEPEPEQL

B1: LAG3.6-G4P (antibody, V domains shown)
VH: QVQLQQWGAGLLKPSETLSLTCAVYGGSFSDYYWNWIRQPPGKGLEWIGEIIHSGSTNSNPSLKSRVTLSLDTSKNQFSLKLRSVTAADTAVYYCAFGYSDYEYNWFDPWGQGTLVTVSS
VL: EIVLTQSPATLSLSPGERATLSCRASQSISSYLAWYQQKPGQAPRLLIYDASNRATGIPARFSGSGSGTDFTLTISSLEPEDFAVYYCQQRSNWPLTFGQGTNLEIKR
notes: also called var2; copies: 2 + 2
B2: LAG3.8 antibody variant of LAG3.1 (25F7) (antibody, V domains shown)
VH: B1 VH with I52N, S54I, S56N
VL: B1 VL
notes: It was made by site-directed mutagenesis of the LAG3.1 VH
B3: LAG3.7-G4P (antibody, V domains shown)
VH: B1 VH with I52N, S54G, S56G
VL: B1 VL
notes: also called var3; copies: 2 + 2
B4: antibody 25F7 (LAG3.1), anti-human LAG-3 human monoclonal antibody (antibody, human IgG4 S228P, kappa, V domains shown)
VH: B1 VH with I52N, S54N, S56N
VL: B1 VL
notes: The heavy chain is human IgG4 with S228P; also called antibody LAG3.1

What was measured:
[1] = biological target: T1, soluble human LAG-3/Fc antigen; assay: BIACORE (surface plasmon resonance) with soluble human LAG-3/Fc antigen
[2] = biological target: T2, human LAG-3 on activated Hu CD4+ T cells; assay: flow cytometry on anti-CD3/anti-CD28-activated human CD4+ T cells (native LAG-3), PE anti-human Fc detection, FL2 GMFI
Experimental: (§1) To test the ability of the antibody variants to bind to native human LAG-3 on the surface of activated human T cells, normal healthy donor peripheral blood mononuclear cells were stimulated in 15 cm tissue culture plates at a density of 2×10e6 cells/mL, with a combination of anti-CD3 (eBioscience, Cat #16-0037-85) and anti-CD28 (BD Bioscience, Cat #555725) antibodies present in solution at 5 μg/mL and 3 μg/mL, respectively. Following three days of stimulation cells were harvested, washed 1× with 1×PFAE buffer (1×PBS+2% FBS, 0.02% sodium azide, 2 mM Na EDTA), and resuspended in 1×PFAE buffer for staining.
(§2) For the binding reaction, 100 μl of this diluted antibody mixture was added to 2×10⁵ cells and the mixture was incubated on at 4° C. for 30 minutes. The cells were then washed two times with 1×PFAE buffer. A 1:200 dilution of PE-labeled goat anti-human Fcγ-specific antibody (Jackson ImmunoResearch, Cat. #109-116-170) was added and the mixture was incubated for 30 minutes at 4° C., followed by washing twice with cold 1×PFAE buffer. After the final wash, 150 μl of cold 1×PFAE was added to each solution and analysis of antibody binding was carried out by flow cytometry using a FACSCanto flow cytometer (BD Bioscience).

[3] = biological target: T1, soluble human LAG-3/Fc antigen; assay: Biacore (SPR); antibody kept in PBS
[4] = biological target: T1, soluble human LAG-3/Fc antigen; assay: Biacore (SPR); antibody after accelerated stress at pH 8 (5 days, 40 C)
[5] = biological target: T2, human LAG-3 on activated Hu CD4+ T cells; assay: flow cytometry on activated human CD4+ T cells (donor WB1907), FL2 GMFI; forced stability study, sample not marked pH 8
Experimental: as §1, §2

[6] = biological target: T2, human LAG-3 on activated Hu CD4+ T cells; assay: flow cytometry on activated human CD4+ T cells (donor WB1907), FL2 GMFI; antibody after 5 days at 40 °C in pH 8.0 ammonium bicarbonate
Experimental: as §1, §2

Binder	Kd [1] [nM]	koff [1] [s⁻¹]	kon [1] [M⁻¹ s⁻¹]	EC50 [2] [nM]	Kd [3] [nM]	koff [3] [s⁻¹]	kon [3] [M⁻¹ s⁻¹]	Kd [4] [nM]	koff [4] [s⁻¹]	kon [4] [M⁻¹ s⁻¹]	EC50 [5] [nM]	EC50 [6] [nM]	EC50 (read off the curve) [2] [nM]
B1	0.66	0.000777	1.18e+06	0.21	–	–	–	–	–	–	–	–	–
B2	–	–	–	–	0.25	0.000368	1.47e+06	0.25	0.000402	1.62e+06	0.24	0.21	–
B3	–	–	1.04e+06	–	–	–	–	–	–	–	–	–	~0.3
B4	0.27	–	–	0.13	0.21	–	–	0.2	–	–	–	0.2	–
